Experimental data from US20210308031.

Key:
[1] = test system: Unhydroxylated collagen purified from strain PP434 (vector MMV411)
[2] = test system: (Pro-Pro-Gly)10 peptide model substrate

AB fusion protein with the His tag (P4HA1 at the N-terminus, GSGSGS linker, P4HB at the C-terminus, six histidines), encoded by plasmid MMV502
% Hydroxyproline (in vitro hydroxylation, 5 uM enzyme, 2 uM collagen, 32 C, 1 hour); enzyme from strain PP547 [1]: 34.8% | % Hydroxyproline (in vitro hydroxylation, 5 uM enzyme, 2 uM collagen, 32 C, 1 hour); enzyme from strain PP635 [1]: 26.6% | alpha-ketoglutaric acid consumption over time [2]: there was less a ketoglutaric acid in the sample with the AB fusion protein than the sample with native P4HA and P4HB proteins
